We go through one molecule from publication doi:10.1101/2023.07.15.549169.

Numbering of substitutions follows the chain as printed.

Common to all, as to assay: AlphaScreen or HTRF
Holding throughout (conditions): remark: other sources report otherwise
Background: In Alpha technology, singlet oxygen from a donor bead excites a nearby acceptor bead.

For test [1], the target named is T1, His-tagged SMAD4 R361H, Q13485.
T1 chain: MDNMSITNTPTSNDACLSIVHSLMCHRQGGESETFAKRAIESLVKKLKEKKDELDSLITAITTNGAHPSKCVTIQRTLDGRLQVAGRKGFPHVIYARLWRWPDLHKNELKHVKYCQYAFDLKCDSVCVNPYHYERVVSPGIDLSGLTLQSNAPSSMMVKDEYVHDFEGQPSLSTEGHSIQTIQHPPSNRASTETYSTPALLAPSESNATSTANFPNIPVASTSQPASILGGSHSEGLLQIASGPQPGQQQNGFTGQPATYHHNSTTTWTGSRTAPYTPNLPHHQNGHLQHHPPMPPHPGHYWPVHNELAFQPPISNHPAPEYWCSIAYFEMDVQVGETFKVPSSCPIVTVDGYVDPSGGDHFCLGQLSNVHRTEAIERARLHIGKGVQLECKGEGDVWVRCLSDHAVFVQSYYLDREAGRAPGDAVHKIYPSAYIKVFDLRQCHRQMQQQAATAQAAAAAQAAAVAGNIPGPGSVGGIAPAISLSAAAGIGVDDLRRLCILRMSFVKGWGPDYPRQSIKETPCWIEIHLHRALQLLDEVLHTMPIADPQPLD

Test [2] deals with T2, His-tagged SMAD4 WT (Mothers against decapentaplegic homolog 4), Q13485.
T2 chain: T1 chain with H361R

Test [3] has as its target T3, His-tagged SMAD4 R361C, Q13485.
T3 chain: T1 chain with H361C

B1: Flag-tagged SMAD3 WT, P84022 1-425 (natural protein)
chain: MSSILPFTPPIVKRLLGWKKGEQNGQEEKWCEKAVKSLVKKLKKTGQLDELEKAITTQNVNTKCITIPRSLDGRLQVSHRKGLPHVIYCRLWRWPDLHSHHELRAMELCEFAFNMKKDEVCVNPYHYQRVETPVLPPVLVPRHTEIPAEFPPLDDYSHSIPENTNFPAGIEPQSNIPETPPPGYLSEDGETSDHQMNHSMDAGSPNLSPNPMSPAHNNLDLQPVTYCEPAFWCSISYYELNQRVGETFHASQPSMTVDGFTDPSNSERFCLGLLSNVNRNAAVELTRRHIGRGVRLYYIGGEVFAECLSDSAIFVQSPNCNQRYGWHPATVCKIPPGCNLKIFNNQEFAALLAQSVNQGFEAVYQLTRMCTIRMSFVKGWGAEYRRQTVTSTPCWIELHLNGPLQWLDKVLTQMGSPSIRCSSVS
For B1, the reduction of the PPI signal against SMAD4 WT in test [1] and in test [3] was 75% in each case. In test [2], this molecule displayed a decrease of the PPI signal with 5'-FAM-SBE4 Mut dsDNA against WT dsDNA of 15%.
